# B1: CPEB3 Ribozyme (parent)
# chain: UAACAGGGGGCCACAGCAGAAGCGUUCACGUCGCAGCCCCUGUCAGAUUCUGGUGAAUCUGCGAAUUCUGCUGUAUAUCUC
# Variants of: B1
# Test: self-cleavage, relative activity (ratio to wild type); higher = more cleavage; in vitro, sequencing
# How it was run: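 For each CPEB3 ribozyme variant, relative activity is its cleaved/total read fraction divided by the unmutated ribozyme's. Barcoded error-prone PCR libraries were transcribed by T7 RNA polymerase (5 hours, 37°C) and held in DNase I for 15 min before an EDTA stop, with cleavage occurring throughout. Template-switching reverse transcription and Illumina sequencing were used to read the RNAs. A 5-read minimum applied, and results are the mean of three batches.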
row,Variant,self-cleavage
1,C32U G46A,0.15
2,C32U G70A,0.21
3,G33C G53C,0.07
4,C34G A35G,0.86
5,C32U C68U,0.2
6,C32U C68G,0.13
7,C34U G36U,0.14
8,G33A G52C,0.12
9,G33A G52A,0.3
10,C34G A77C,0.08
11,G33A C40U,0.38
12,G33A C40G,0.2
13,G33A C40A,0.19
14,G33A U49C,0.28
15,G33A U49A,0.29
16,C34A U74G,0.29
17,C34U G61U,0.19
18,G33A A45U,0.39
19,G33A A45C,0.22
20,G33A A45G,0.24
21,C34A A57G,0.35
22,G33A C39U,0.16
23,G33U G46A,0.44
24,C32U U66C,0.22

row,Variant,self-cleavage
1,C32U U66A,0.22
2,C34U U66C,0.35
3,C34U U69C,0.35
4,C34U U69A,0.13
5,C32U U74G,0.09
6,C32U U74C,0.38
7,C34U U78C,0.3
8,C34A A47G,0.31
9,G33U G36U,0.13
10,G33U U43C,0.48
11,C34G C59A,0.18
12,C34G C59G,0.14
13,C34A U67C,0.29
14,C34A U67A,0.33
15,C32U A65U,0.13
16,C32U A65G,0.21
17,C34U G70A,0.14
18,G33C A77G,0.11
19,G33A C59U,0.24
20,C34G A75G,0.15
21,C32U C39A,0.15
22,C32U U80C,0.44
23,C32U G61C,0.18
24,G33A A64U,0.28

row,Variant,self-cleavage
1,G33A A64G,0.16
2,C32U U78C,0.25
3,C34A A35G,1.07
4,G33A C62U,0.11
5,G33A C62A,0.37
6,G33C A57G,0.13
7,C32U U54C,0.33
8,C32U U54A,0.2
9,G33A G42U,0.39
10,C34U U51A,0.34
11,C34U U51G,0.54
12,C32U G63A,0.46
13,C34U A45G,0.34
14,C34U A45C,0.17
15,C34U U76A,0.5
16,C34U U76C,0.35
17,C34G C68A,0.1
18,C34G C68U,0.15
19,C32U C34U,0.19
20,G33A U43A,0.32
21,G33A U43C,0.29
22,G33A U43G,0.34
23,G33U U49C,0.15
24,G33U U49G,0.2

row,Variant,self-cleavage
1,C34G U51C,0.29
2,C32U A64G,0.3
3,C32U A64U,0.13
4,G33A U67A,0.15
5,G33A U67C,0.22
6,G33A U78C,0.2
7,G33A U78A,0.04
8,C32U U51C,0.16
9,C32U U51G,0.22
10,C32U U51A,0.19
11,G33A G70U,0.71
12,G33A G70C,0.26
13,G33C C62U,0.14
14,C32U U60C,0.18
15,C32U U60G,0.4
16,C32U U60A,0.21
17,G33C C38U,0.12
18,C34U U48G,0.3
19,C34U U48C,0.47
20,C34U U80A,0.51
21,C34U U80C,0.58
22,C34U U80G,0.27
23,G33C A65C,0.1
24,G33C A65G,0.18

row,Variant,self-cleavage
1,C34A U54A,0.17
2,G33C A75G,0.18
3,G33C U49C,0.12
4,G33C C40A,0.15
5,G33U A45C,0.12
6,G33U A45G,0.13
7,G33C U48A,0.15
8,G33C U48C,0.44
9,G33C U41A,0.16
10,C34U A47C,0.41
11,C34U A47U,0.17
12,C34U A47G,0.43
13,G33C A45U,0.17
14,G33C A45G,0.23
15,G33U C38U,0.36
16,G33U C38A,0.2
17,C34G A45C,0.19
18,C34A,0.34
19,C34U,0.35
20,C34G,0.33
21,C34A U60C,0.14
22,C34U U43C,0.22
23,C34U U43A,0.51
24,C32U A77C,0.15

row,Variant,self-cleavage
1,G33U U41C,0.25
2,G33U U41A,0.18
3,G33C A35G,0.22
4,G33C A35U,0.14
5,G33A U58C,0.08
6,G33C U54C,0.13
7,G33U A75U,0.81
8,C34U G46A,0.07
9,G33A U76C,0.19
10,C34U G63U,0.38
11,C34U G63A,0.27
12,C34A G46U,0.15
13,G33A U51C,0.37
14,G33A U51G,0.19
15,G33A U51A,0.26
16,C34U C68U,0.3
17,G33A C50G,0.22
18,G33A C50U,0.1
19,C34G C71U,0.52
20,C34U C71A,0.13
21,C34U A65G,0.34
22,G33A U66A,0.18
23,G33A U66C,0.31
24,C34U U41G,0.12

row,Variant,self-cleavage
1,C34U U41A,0.4
2,C34U U41C,0.5
3,C32U G53A,0.27
4,C34A G70C,0.17
5,C34A A64G,0.14
6,C34G C62G,0.04
7,G33U,0.24
8,G33C,0.23
9,G33A,0.28
10,C34A U69A,0.07
11,C34A U69C,0.07
12,C34A U78C,0.32
13,C34A U78A,0.16
14,C32U C38U,0.08
15,G33A G36A,0.07
16,C32U U43C,0.25
17,C32U U43A,0.43
18,G33C U72A,0.09
19,G33C U72C,0.19
20,C34A U48C,0.13
21,C32U U58C,0.35
22,C32U U58A,0.14
23,C34G G42A,0.62

# Source: the RNAGym collection of RNA variant scans (doi:10.1093/nar/gkz1192)
